The nature of this data set: protein stability index of a GFP-peptide fusion (GPS, HEK-293T) (PSI 1-6); higher = more stable. To be noted: c terminus: a fixed tail appended.

Results on 29 sequences are retold here after the supplement of paper PMC10567573.

± gives the standard deviation.
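Note: 24-mer peptide tiles fused after GFP, lentivirally expressed, FACS-sorted into six equal bins by GFP/DsRed ratio, decoded by Illumina sequencing, PSI is the read-weighted mean bin number.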

For the sequence TPIPWLSSGEPVDYNVDIGIPLDG [MYOZ1], the protein stability index by setting is: (treatment: DMSO) 3.98 ± 0.19; (treatment: MLN4924 1 uM, 8 h) 4.07 ± 0.2.

Take SSSSGRLSEPDPSHTLEERVVHWY [SMOC2]: the protein stability index reads like this: (treatment: DMSO) 3.14 ± 0.38; (treatment: MLN4924 1 uM, 8 h) 3.1 ± 0.22.

Regarding TFHEGKHNISHMSMDIARGLMVTC [WDFY1], the protein stability index came out at 2.49 ± 0.63 (treatment: DMSO) and 2.04 ± 0.14 (treatment: MLN4924 1 uM, 8 h).

As to VVTTEHILVSVAAGVSLSTLEELL [PYCR3], the protein stability index was 3.04 ± 0.72 (treatment: DMSO) and 2.78 ± 0.66 (treatment: MLN4924 1 uM, 8 h).

As to EACKAFFKRTIQGSIEYSCPASNE [ESRRA], the protein stability index (treatment: DMSO) was 2.98 ± 0.19 and the protein stability index (treatment: MLN4924 1 uM, 8 h) came to 3 ± 0.17.

On to SLQQQHQADLELIESAHRSRIKVL [FBF1], for which the protein stability index (treatment: DMSO) was 3.53 ± 0.074 and the protein stability index (treatment: MLN4924 1 uM, 8 h) worked out at 3.47 ± 0.31.

For the sequence PPLWAASAAGHLDVVRSLLRRGAS [FEM1A], the protein stability index is, setting by setting: (treatment: DMSO) 3.55 ± 0.28; (treatment: MLN4924 1 uM, 8 h) 3.43 ± 0.28.

With GQYATTKGISQTNLITTVTPEKKA [EPB41L3], the protein stability index came out at 5.07 ± 0.2 (treatment: DMSO) and 5.11 ± 0.17 (treatment: MLN4924 1 uM, 8 h).

With EQVNFCESSNDFGPYEGGGPVAGL [ZBTB22], the protein stability index by setting is: (treatment: DMSO) 4.3 ± 0.16; (treatment: MLN4924 1 uM, 8 h) 4.32 ± 0.25.

As for ALDNESWGFVHPRLLSVPELCHHV [RETREG3], the protein stability index (treatment: DMSO) amounted to 2.65 ± 0.42 and the protein stability index (treatment: MLN4924 1 uM, 8 h) was 2.46 ± 0.23.

LEFFYGIATATEIAYYSYIYSVVD [SLC19A2]: the protein stability index is, setting by setting: (treatment: DMSO) 3.5 ± 0.48; (treatment: MLN4924 1 uM, 8 h) 3.27 ± 0.46.

For the sequence VEPPGPGDTVVQGDLQETTVVTGL [PBXIP1], the protein stability index reads like this: (treatment: DMSO) 5.31 ± 0.4; (treatment: MLN4924 1 uM, 8 h) 5.15 ± 0.46.

In the case of RYFIADLPHLQDSFVDKLLDLMPR [INTS4], the protein stability index turned out to be 2.16 ± 0.29 (treatment: DMSO) and 2.27 ± 0.29 (treatment: MLN4924 1 uM, 8 h).

The sequence NAVKYVSNIKFCSFHPLQYIGFYG [PDS5B] had a protein stability index (treatment: DMSO) of 2.89 ± 0.25 and a protein stability index (treatment: MLN4924 1 uM, 8 h) of 2.35 ± 0.54.

On to GREKPGPLDFEAYSAAALQEAMKR [FCHO1], for which the protein stability index runs as follows: (treatment: DMSO) 4.21 ± 0.27; (treatment: MLN4924 1 uM, 8 h) 4.26 ± 0.18.

Turning to WQMIEQIQFIKLFGMAKIDNLLQE [HNF4A], the protein stability index runs as follows: (treatment: DMSO) 2.9 ± 0.7; (treatment: MLN4924 1 uM, 8 h) 2.33 ± 0.33.

With GYSWSMGAYKSSTICYCPEKGTWT [KLHL14], the protein stability index is, setting by setting: (treatment: DMSO) 2.03 ± 0.26; (treatment: MLN4924 1 uM, 8 h) 2.08 ± 0.34.

In the case of SDVVEYAKEKLESFIKNSDSFDKF [PCMTD1], the protein stability index is, setting by setting: (treatment: DMSO) 3.7 ± 0.17; (treatment: MLN4924 1 uM, 8 h) 4.16 ± 0.38.

As for AVWGQCQVRIRYLGERRAEPHSLL [SPSB2], the protein stability index was 2.26 ± 0.23 (treatment: DMSO) and 2.19 ± 0.28 (treatment: MLN4924 1 uM, 8 h).

Turning to MGLYDGMEHLIYGEPRKLLTQDWV [MAGEA10], the protein stability index is 2.25 ± 0.31 (treatment: DMSO) and 2.28 ± 0.51 (treatment: MLN4924 1 uM, 8 h).

For the sequence FAQPMMRPPFGAAAVPGTQLSPSP [SNAP91], the protein stability index by setting is: (treatment: DMSO) 3.43 ± 0.31; (treatment: MLN4924 1 uM, 8 h) 3.71 ± 0.35.

On to AALTRMRAESTANAGQSDNRSLAE [ANKRD17], for which the protein stability index is 4.79 ± 0.14 (treatment: DMSO) and 4.81 ± 0.15 (treatment: MLN4924 1 uM, 8 h).

Regarding MLRSGLSGLGSCLPGSYLSSECHT [KRT36], the protein stability index is, setting by setting: (treatment: DMSO) 2.42 ± 0.12; (treatment: MLN4924 1 uM, 8 h) 2.37 ± 0.092.

Turning to PQVWREAATQVFFALGLGFGGVIA [SLC6A17], the protein stability index (treatment: DMSO) came to 3.78 ± 0.85 and the protein stability index (treatment: MLN4924 1 uM, 8 h) stood at 3.4 ± 0.82.

Regarding SSETPIEGKNMSFVNDLTVTQDGR [APMAP], the protein stability index is, setting by setting: (treatment: DMSO) 4.96 ± 0.34; (treatment: MLN4924 1 uM, 8 h) 4.87 ± 0.25.

Take LESTLAETEARYSSQLAQMQCLIS [KRT36]: the protein stability index is, setting by setting: (treatment: DMSO) 3.08 ± 0.17; (treatment: MLN4924 1 uM, 8 h) 3.18 ± 0.32.

Turning to VLERGDSAPATAKENAAAPSPVRA [PALM], the protein stability index was 5.3 ± 0.23 (treatment: DMSO) and 5.24 ± 0.078 (treatment: MLN4924 1 uM, 8 h).

Consider HAGQGGLFYSAEVEMLCDQAWGSM [CCDC3], for which the protein stability index came to 2.53 ± 0.77 (treatment: DMSO) and 2.47 ± 0.39 (treatment: MLN4924 1 uM, 8 h).

Take IHLDPRTREGFTLLHLAVNSNTPV [FEM1B]: the protein stability index reads like this: (treatment: DMSO) 2.24 ± 0.41; (treatment: MLN4924 1 uM, 8 h) 2.17 ± 0.27.
